We go through one molecule from patent US20180188270A1, “DIAGNOSTIC TEST FOR ALZHEIMER'S DISEASE BASED ON IDENTIFICATION OF A PROTEOLYTIC PATHWAY” (Health Research, Inc., priority 2015, published 2018).

Experiment [1] concerns the target T1, FXa (Homo sapiens, UniProt P00742).
T1 construct: purchased Haematologic Technologies HCXA-0060
Kind of experiment: hPEPD stability on incubation with FXa. The conditions noted are these: hPEPD 90 nM, FXa 100 nM. Type of experiment: biochemical. Here is the method: (§1) Measurement of in vitro degradation of hPEPD, mSRC and hAβ1-42. To determine whether a blood coagulation factor degrades hPEPD, hPEPD at 90 nM or lower concentrations (10 or 40 nM) was incubated with solvent, 100 nM FIIa, 100 nM FXa, 10 nM FVIIa with or without 10 nM TF, or 10 nM FVII with or without 10 nM TF and/or 100 nM FIIa in PBS in a total volume of 100 μl containing 5 mM CaCl2 for desired times at RT. […] To compare the hPEPD-degrading activities of different plasma samples, 9.2 pmol of hPEPD was incubated with 100 μl of plasma from WT mice or FVII^tTA/tTA mice at RT, with or without FIIa or FXa (10 pmol), and to maximize detection of any activity, all incubations lasted for 24 h. […] To measure remaining hPEPD, the incubated samples were cleared of potential fibrin clots by centrifugation and then analyzed by SDS-PAGE and silver staining (using the LC 6070 kit from Invitrogen), IB or measurement of hPEPD enzymatic activity. hPEPD enzymatic activity was measured using glycyl-proline as a substrate (as described in Zbucka et al., Folia Histochem Cytobiol 2007; 45 Suppl 1: S181-185). The precipitates from each incubated sample were washed with PBS twice and then resuspended in 2.5% SDS (20 μper sample); each solution was mixed with 10 μl loading dye and analyzed for hPEPD by IB, using pure hPEPD as a standard and factor FXIIIa as a binding control, respectively.

Experiment [2] deals with T2, FIIa (Homo sapiens, UniProt P00734).
T2 construct: purchased Haematologic Technologies HCT-0020
In words: hPEPD stability on incubation with FIIa. The conditions noted are these: hPEPD 90 nM, FIIa 100 nM. In kind it is biochemical. Here is the method:
as §1

For experiment [3], the target named is T3, FVII (Homo sapiens, UniProt P08709).
T3 construct: purchased Haematologic Technologies HCVII-0030
T3 sequence (P08709 61-466): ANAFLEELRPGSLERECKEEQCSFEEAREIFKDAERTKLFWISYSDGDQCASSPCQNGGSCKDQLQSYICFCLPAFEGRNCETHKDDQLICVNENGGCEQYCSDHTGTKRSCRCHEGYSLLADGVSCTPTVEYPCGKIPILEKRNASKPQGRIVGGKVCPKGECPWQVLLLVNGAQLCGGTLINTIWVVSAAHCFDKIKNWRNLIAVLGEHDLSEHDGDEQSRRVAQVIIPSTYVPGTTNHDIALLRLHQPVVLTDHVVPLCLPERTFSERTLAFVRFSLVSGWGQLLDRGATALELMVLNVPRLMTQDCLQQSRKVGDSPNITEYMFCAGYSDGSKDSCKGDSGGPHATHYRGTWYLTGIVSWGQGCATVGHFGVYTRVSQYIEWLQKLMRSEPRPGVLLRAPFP
In words: hPEPD degradation by FVII with or without TF and/or FIIa. In kind it is biochemical. To be noted: 24 h. Here is the method: as §1

Experiment [4] has as its system FX, FII or FVII. In words: Potential activation of FX, FII or FVII by hPEPD (IB). In kind it is biochemical, human. To be noted: hPEPD 40 nM, 5 mM CaCl2, RT, 24 h. Here is the method: Measurement of Potential Activation of FX, FII or FVII by hPEPD. hPEPD (40 nM) was incubated with FX, FIT or FVII […] in PBS at RT in the presence of 5 mM CaCl2 for 24 h, followed by IB analysis for potential activation/cleavage of each coagulation factor. FXa, FIIa and FVIIa were used as positive controls in the experiments.

The subject of experiment [5] is ERBB1 and ERBB2. In words: Tissue levels and phosphorylation of ERBB1 and ERBB2 by IB. Type of experiment: in vivo, mouse. The conditions noted are these: CCl4 0.5 g/kg or hPEPD 4 mg/kg i.p., 24 h. Here is the method:
Animal studies. All animal studies were performed in accordance with protocols approved by the Institutional Animal Care and Use Committee at Roswell Park Cancer Institute. Male mice at 7-8 weeks of age were used, including wild type (WT) mice (C57BL/6), and mice deficient in FXII (C57BL/6-FXII^−/−) or FVII (C57BL/6-FVII^tTA/tTA). WT C57BL/6 mice were purchased from Taconic. C57BL/6-FXII^−/− mice and C57BL/6-FVII^tTA/tTA mice were bred in our own facility and genotyped. The breeders were kindly provided by Dr. Francis J. Castellino at University of Notre Dame. […] CCl4 was dissolved in corn oil, whereas all other substances were dissolved in PBS. The vehicle or the test substance was given to mice in 0.1 ml volume per 20 g body weight. Blood was collected from the mice at specific times by cardiac puncture at the time of sacrifice by carbon dioxide, and heart, liver and kidney were also collected from some of the mice. Blood was collected into K3 EDTA-containing tubes (Multivette 600 from Sarstedt), unless specified otherwise. All blood samples were promptly centrifuged to obtain plasma samples.
IB. […] Protein concentrations in all samples were measured by the BCA assay kit. […] The proteins were transferred to polyvinylidene fluoride membrane, probed with specific antibodies and detected using the ECL Plus Kit (Amersham) or the SuperSignal West Pico Kit (Thermo Scientific).

T1 sequence (P00742 41-179 limits assumed): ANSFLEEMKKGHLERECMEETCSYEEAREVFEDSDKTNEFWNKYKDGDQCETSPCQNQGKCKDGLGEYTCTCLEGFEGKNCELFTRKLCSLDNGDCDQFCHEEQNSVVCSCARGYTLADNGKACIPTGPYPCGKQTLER
T1 sequence (P00742 235-488 limits assumed): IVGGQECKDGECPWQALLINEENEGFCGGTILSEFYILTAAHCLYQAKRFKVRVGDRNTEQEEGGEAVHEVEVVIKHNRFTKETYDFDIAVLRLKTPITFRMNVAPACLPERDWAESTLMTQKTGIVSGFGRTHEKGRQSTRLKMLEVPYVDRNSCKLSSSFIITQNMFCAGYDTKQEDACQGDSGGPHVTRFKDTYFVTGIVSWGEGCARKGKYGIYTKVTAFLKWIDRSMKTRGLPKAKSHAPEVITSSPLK

B1: hPEPD: recombinant human prolidase (PEPD), 6xHis tagged to the carboxy terminus (protein, UniProt P12955 2-493, looked up)
Xaa-Pro dipeptidase: AAATGPSFWLGNETLKVPLALFALNRQRLCERLRKNPAVQAGSIVVLQGGEETQRYCTDTGVLFRQESFFHWAFGVTEPGCYGVIDVDTGKSTLFVPRLPASHATWMGKIHSKEHFKEKYAVDDVQYVDEIASVLTSQKPSVLLTLRGVNTDSGSVCREASFDGISKFEVNNTILHPEIVECRVFKTDMELEVLRYTNKISSEAHREVMKAVKVGMKEYELESLFEHYCYSRGGMRHSSYTCICGSGENSAVLHYGHAGAPNDRTIQNGDMCLFDMGGEYYCFASDITCSFPANGKFTADQKAVYEAVLRSSRAVMGAMKPGVWWPDMHRLADRIHLEELAHMGILSGSVDAMVQAHLGAVFMPHGLGHFLGIDVHDVGGYPEGVERIDEPGLRSLRTARHLQPGMVLTVEPGIYFIDHLLDEALADPARASFLNREVLQRFRGFGGVRIEEDVVVTDSGIELLTCVPRTVEEIEACMAGCDKAFTPFSGPK
modifications: C-terminal 6xHis tag
notes: recombinant human prolidase (PEPD), 6xHis tagged to the carboxy terminus
As for B1, the “effect of FXa on hPEPD stability” value in experiment [1] was “had no effect on hPEPD stability”. The “effect of FIIa on hPEPD stability” value in experiment [2] is on record as “had no effect on hPEPD stability”. Further, the “hPEPD degradation by FVII with or without TF after adding FIIa” value in experiment [3] (FIIa 100 nM) is “caused marked hPEPD degradation”. Besides, in experiment [3] (FVII 10 nM, TF 10 nM), the “proteolysis of hPEPD by FVII with or without TF” value is on record as “showed no proteolytic activity towards hPEPD”. Also, the “direct activation of FX, FII or FVII” value in experiment [4] is “does not directly activate any of these factors”. Moreover, the “changes in ERBB1/ERBB2 tyrosine phosphorylation and receptor depletion in heart, kidney and liver, WT mice compared to FXII−/− mice” value in experiment [5] is “reduced changes in receptor tyrosine phosphorylation”.
